Data from patent publication US10058586B2, “Use of human small leucine zipper protein in adipocyte differentiation procedure” (Korea University Research and Business Foundation, priority 2013, dated 2018).

T1: PPARγ2 (Homo sapiens, UniProt P37231)
T1 sequence (P37231 1-505): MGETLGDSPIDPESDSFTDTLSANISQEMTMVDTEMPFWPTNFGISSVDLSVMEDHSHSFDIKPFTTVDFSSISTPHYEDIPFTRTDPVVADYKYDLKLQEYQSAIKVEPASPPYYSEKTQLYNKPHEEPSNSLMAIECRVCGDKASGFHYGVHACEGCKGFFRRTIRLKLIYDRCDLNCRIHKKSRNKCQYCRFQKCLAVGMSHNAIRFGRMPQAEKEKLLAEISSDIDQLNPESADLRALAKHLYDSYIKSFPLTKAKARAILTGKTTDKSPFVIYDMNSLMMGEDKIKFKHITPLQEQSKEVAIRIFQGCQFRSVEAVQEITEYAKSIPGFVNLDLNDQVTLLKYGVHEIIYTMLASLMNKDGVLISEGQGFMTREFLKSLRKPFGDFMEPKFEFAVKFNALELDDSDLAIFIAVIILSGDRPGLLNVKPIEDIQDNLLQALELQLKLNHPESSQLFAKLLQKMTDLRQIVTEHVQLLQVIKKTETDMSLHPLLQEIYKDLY

B1: N domains of sLZIP: N-terminal deletion mutant of sLZIP, residues 1-228 (protein)
chain: MELELDAGDQDLLAFLLEESGDLGTAPDEAVRAPLDWALPLSEVPSDWEVDDLLCSLLSPPASLNILSSSNPCLVHHDHTYSLPRETVSMDLESESCRKEGTQMTPQHMEELAEQEIARLVLTDEEKSLLEKEGLILPETLPLTKTEEQILKRVRRKIRNKRSAQESRRKKKVYVGGLESRVLKYTAQNMELQNKVQLLEEQNLSLLDQLRKLQAMVIEISNKTSSSS
modifications: left off: a dimerising Fc or GST
B2: sLZIP: human small leucine-zipper protein, isoform of LZIP, 354 amino acids, no transmembrane domain; GenBank FJ263669, SEQ ID NO: 1 (protein, listed as Homo sapiens)
chain: MELELDAGDQDLLAFLLEESGDLGTAPDEAVRAPLDWALPLSEVPSDWEVDDLLCSLLSPPASLNILSSSNPCLVHHDHTYSLPRETVSMDLESESCRKEGTQMTPQHMEELAEQEIARLVLTDEEKSLLEKEGLILPETLPLTKTEEQILKRVRRKIRNKRSAQESRRKKKVYVGGLESRVLKYTAQNMELQNKVQLLEEQNLSLLDQLRKLQAMVIEISNKTSSSSMYSSDTRGSLPAEHGVLSRQLRALPSEDPYQLELPALQSEVPKDSTHQWLDGSDCVLQAPGNTSCLLHYMPQAPSAEPPLEWPFPDLFSEPLCRGPILPLQANLTRKGGWLPTGSPSVILQDRYSG

Target: T1, PPARγ2
Experiment: Luciferase reporter gene analysis (FABP4-Luc) of PPARγ2 transcriptional activity in 293T cells
Assay type: cell-based
Parameters: expressed in transfected cells; host or cells: 293T cells
Settings: 293T cells; for PPARγ2 transcriptional activity (luciferase): sLZIP or deletion mutants 0.1 μg, RZD treated; for transcriptional activity of PPARγ2 (luciferase): sLZIP 0.1 μg
Experimental: C3H10T1/2 and 293T cells were plated in a 12-well culture dish at a density of 2×10^5 cells/well and incubated for 24 hours. Then, according to instructions of the manufacturer, the cells were transfected with a 0.2 μg of reporter genes and 0.1 to 0.5 μg of a laboratory plasmid using Lipofectamine 2000 or Genefectine. After 24 hours, the cells were cultured in a serum-free DMEM with or without 10 nM of rosiglitazone. siRNAs were prepared using sLZIP and HDAC target sequences (Table 1). For an RNA interference experiment, according to instructions of the manufacturer, the cells were transfected with scrambled control group RNA and appropriate siRNAs using Lipofectamine 2000. Human MSC and C3H10T/1/2 cells were infected with an adenovirus vector containing cDNA of human sLZIP or an empty vector. The infected medium was exchanged with a fresh medium after two hours.
Appropriately transfected cells were washed with cold PBS twice, and a reporter lysis buffer (Promega) was used and lysed in a culture dish. Luciferase analysis was performed using a luciferase analysis system (Promega Corporation, Madison, Wis.). A luciferase activity was recorded in Luminometer 20/20^n (Turner BioSystems, Sunnyvale, Calif.) according to instructions of the manufacturer. The luciferase activity was normalized to a β-galactosidase activity. For β-galactosidase analysis, CMV-β-galactosidase was transfected with luciferase reporter genes. All pieces of data were represented as mean±standard deviation of the results from at least three independent experiments.
In order to examine an effect of sLZIP on the transcriptional activity of PPARγ2, 293T cells were temporarily transfected with PPARγ2 (0.5 μg), β-galactosidase (0.1 μg), FABP4-Luc reporter genes (0.2 μg) and sLZIP at different contents (0.1 to 0.5 μg). After the transfection, the cells were stimulated with or without 10 nM of rosiglitazone (RZD) (FIG. 1A), pioglitazone (PZD) (FIG. 1B), and troglitazone (TZD) (FIG. 1C). A relative luciferase activity was analyzed with or without cell ligand treatment 24 hours after transfection. Also, the 293T cells were transiently transfected with si-sLZIP at different contents (50 and 100 nM), and the cells were treated or not treated with RZD (FIG. 1D). FABP4-Luc stable C3H10T1/2 cells were infected with a sLZIP-expressing adenovirus, and then differentiated into adipocytes for 4 days (FIG. 1E). A luciferase activity was normalized to a β-galactosidase activity and represented as a relative activity (fold change). All experiments were repeated three times, and bars in the graph represent mean±standard deviation. *, P<0.05; **, P<0.01
For this purpose, 293T cells were transiently transfected with PPARγ2 (0.5 μg), (3-galactosidase (0.1 μg), FABP4-Luc reporter genes (0.2 μg) and sLZIP (0.1 μg). After the transfection, the cells were stimulated with or without 10 nM of RZD and 10 nM of TSA (FIG. 4A). A promoter activity was measured according to luciferase analysis. In the 293T cells, FABP4-Luc reporter genes, sLZIP, PPAR, β-galactosidase, and 100 nM of si-RNAs and HDAC1, 2, 3 and 8 for a control group were expressed. After the transfection, the cells were stimulated with or without 10 nM of RZD, and a promoter activity was measured (FIG. 4B). 293T cells were temporarily transfected with FABP4-Luc reporter genes, PPARγ2, β-galactosidase, HDAC3 (0.5 μg) and sLZIP (0.1 μg). After the transfection, the cells were stimulated with or without 10 nM of RZD, and luciferase analysis was performed (FIG. 4C). A luciferase activity was normalized to a β-galactosidase activity and represented as a relative intensity (fold change). All experiments were repeated three times, and bars in the graph represent mean±standard deviation. GFP-sLZIP expression constructs were expressed in C3H10T1/2 cells, rabbit anti-HDAC3 antibodies and Texas Red-labeled anti-rabbit antibodies were used and analysis was performed under a fluorescence microscope. The nucleus was stained with DAPI (FIG. 4D). […]

Molecule	PPARγ2 transcriptional activity (luciferase)	transcriptional activity of PPARγ2 (luciferase) (cells treated with 10 nM TSA (HDAC inhibitor))	transcriptional activity of PPARγ2 (luciferase) (no TSA)	transcriptional activity of PPARγ2 (relative luciferase activity) (sLZIP 0.1 to 0.5 μg, with or without 10 nM RZD, PZD or TZD)	sLZIP-mediated PPARγ2 transcriptional activity (luciferase) (transfection of both sLZIP (0.1 μg) and HDAC3 (0.5 μg))
B1	The transcriptional activity of PPARγ2 was inhibited				
B2	still inhibited the PPARγ2 transcriptional activity	did not decrease the transcriptional activity of PPARγ2	inhibits the transcriptional activity of PPARγ2	inhibits the transcriptional activity of PPARγ2 in a concentration-dependent manner	significantly down-regulated
